Series [1] concerns MP105 (E. coli TOP10 expressing OXA-48:P68A). Kind of series: microbe, parasite or virus in culture. In kind it is cell-based.
The subject of another series is E. coli TOP10. Nature of the series: microbe, parasite or virus in culture. Conditions: Escherichia coli, Table 3, read-out: MIC. In kind it is cell-based. On the procedure: (§1) For MIC determination, single colonies were suspended in 0.9% saline buffer to a 0.5 McFarland standard and further diluted 1:100 in MH broth. Fifty microliters of the bacterial suspension was loaded onto in-house-designed and premade Sensititre microtiter plates (TREK Diagnostic Systems/Thermo Fisher Scientific, East Grinstead, United Kingdom). The plates were incubated for 20 h at 37°C. Antibiotic susceptibility testing was performed in duplicates.

Series [2] concerns the target T1, OXA-48:P68A (Klebsiella pneumoniae, UniProt Q6XEC0, P68A). Kind of series: Steady-state enzyme kinetics, OXA-48:P68A. In kind it is biochemical.
A further series concerns E. coli MG1655 (MP100). Nature of the series: microbe, parasite or virus in culture. It is filed as cell-based, Escherichia coli. On the procedure:
as §1

Series [3] concerns MP107 (MP100 transformed with p50579417_3_OXA-48-CAZ). Kind of series: MIC determination, MP107 (MG1655 with CAZ-adapted plasmid). It is filed as cell-based. Conditions: Escherichia coli; Table 6; MP107, adapted plasmid p50579417-OXA-48-CAZ. On the procedure: as §1
Series [4] concerns MP104 (E. coli TOP10 expressing native OXA-48). Kind of series: MIC determination, TOP10 expressing native OXA-48 (MP104). It is filed as cell-based. Conditions: Escherichia coli; Table 3; MP104, native OXA-48 in pCR-blunt II TOPO. On the procedure:
as §1
For a functional resistance profile, the native and mutated blaOXA-48 genes were cloned in the pCR-blunt II-TOPO vector (Invitrogen, CA) and expressed in E. coli TOP10 (Invitrogen, CA). The PCR product was obtained by Phusion High Fidelity PCR mastermix with High Fidelity buffer (New England Biolabs, MA) and preOXA-48 primers ([61]). Transformants were selected on LB agar plates containing 50 or 100 mg/liter ampicillin. Insertion size was verified by Sanger sequencing using M13 forward (5′-[…]-3′) and reverse (5′-[…]-3′) primers.

Series [5] deals with MP101 (MP100 transformed with p50579417_3_OXA-48). Nature of the series: MIC determination, MP101 (MG1655 with native OXA-48 plasmid). In kind it is cell-based, Escherichia coli.
From the text: Mueller-Hinton (MH) agar and broth were purchased from Thermo Fisher Scientific (East Grinstead, United Kingdom). Luria-Bertani (LB) broth, LB agar, ampicillin, amoxicillin, cefepime, CAZ, imipenem, meropenem, piperacillin, and tazobactam were obtained from Sigma-Aldrich (St. Louis, MO). Nitrocefin was purchased from Merck (Darmstadt, Germany). The characteristics of the clinical E. coli strain 50579417 harboring the OXA-48 plasmid (p50579417_3_OXA-48) have been described previously ([61], [62]). The plasmid p50579417_3_OXA-48 was conjugated into rifampin-resistant E. coli TOP10 and subsequently isolated using a plasmid mini-purification kit (Qiagen, Germany). E. coli MG1655 (DA4201) was electroporated with p50579417_3_OXA-48 as published previously ([63]). Transformants positive for blaOXA-48 were checked by PCR using REDTaq ready mix (Sigma-Aldrich, St. Louis, MO) and preOXA-48 primers ([61]).
as §1

Series [6] concerns MP102 (MP101 subjected to CAZ). Kind of series: MIC determination, MP102 (MP101 selected on CAZ). In kind it is cell-based, Escherichia coli. On the procedure:
(§2) Ten milliliters of an MP101 culture was grown in MH broth at 37°C overnight and then centrifuged for 10 min at 4,000 × g, and the pellet was suspended in 1 ml MH broth. One hundred microliters was plated on MH agar containing increasing concentrations of either CAZ alone or in combination with AVI up to 2 mg/liter. For CAZ-AVI, we utilized the clinical ratio of 4:1, respectively. Colonies growing on the highest concentration were recovered and grown in a fresh overnight culture (MH broth) and subsequently plated on concentrations of CAZ or CAZ-AVI up to 32 mg/liter.
as §1

Series [7] deals with MP108 (MP100 transformed with p50579417_3_OXA-48-CAZ-AVI). Nature of the series: MIC determination, MP108 (MG1655 with CAZ-AVI-adapted plasmid). In kind it is cell-based. Conditions: Escherichia coli; Table 6; MP108, adapted plasmid p50579417-OXA-48-CAZ-AVI. On the procedure: as §1
Series [8] relates to MP103 (MP101 subjected to CAZ-AVI). Nature of the series: MIC determination, MP103 (MP101 selected on CAZ-AVI). It is filed as cell-based, Escherichia coli. On the procedure:
as §2, §1

In series [9] the target is T1, OXA-48:P68A. Kind of series: IC50 with nitrocefin as reporter substrate, OXA-48:P68A. It is filed as biochemical.
In series [10] the test system is CCN1CCN(C(=O)N[C@@H](C(=O)N[C@@H]2C(=O)N3[C@@H]2SC(C)(C)[C@@H]3C(=O)O)c2ccccc2)C(=O)C1=O. Nature of the series: purified protein, by the assay type. Conditions: other: substrate hydrolysis, 25°C, 0.1 M phosphate buffer pH 7.0, 50 mM NaHCO3, error = 95% CI.
Series [11] relates to C[C@@H](O)[C@H]1C(=O)N2C(C(=O)O)=C(S[C@@H]3CN[C@H](C(=O)N(C)C)C3)[C@H](C)[C@H]12. Nature of the series: purified protein, by the assay type. Conditions: other: substrate hydrolysis, 25°C, 0.1 M phosphate buffer pH 7.0, 50 mM NaHCO3, error = 95% CI.
The subject of series [12] is C[C@@H](O)[C@H]1C(=O)N2C(C(=O)O)=C(SCCN=CN)C[C@H]12. Nature of the series: purified protein, by the assay type. Conditions: other: substrate hydrolysis, 25°C, 0.1 M phosphate buffer pH 7.0, 50 mM NaHCO3, error = 95% CI.
The subject of series [13] is CC(C)(O/N=C(\C(=O)N[C@@H]1C(=O)N2C(C(=O)[O-])=C(C[n+]3ccccc3)CS[C@H]12)c1csc(N)n1)C(=O)O. Kind of series: purified protein, by the assay type. Conditions: other: substrate hydrolysis, 25°C, 0.1 M phosphate buffer pH 7.0, 50 mM NaHCO3, error = 95% CI.
Series [14] concerns CC1(C)S[C@@H]2[C@H](NC(=O)[C@H](N)c3ccccc3)C(=O)N2[C@H]1C(=O)O. Nature of the series: purified protein, by the assay type. Conditions: other: substrate hydrolysis, 25°C, 0.1 M phosphate buffer pH 7.0, 50 mM NaHCO3, error = 95% CI.
The subject of series [15] is CO/N=C(\C(=O)N[C@@H]1C(=O)N2C(C(=O)[O-])=C(C[N+]3(C)CCCC3)CS[C@H]12)c1csc(N)n1. Kind of series: purified protein, by the assay type. Conditions: other: substrate hydrolysis, 25°C, 0.1 M phosphate buffer pH 7.0, 50 mM NaHCO3, error = 95% CI.
In series [16] the test system is O=C(Cc1cccs1)N[C@@H]1C(=O)N2C(C(=O)O)=C(/C=C/c3ccc([N+](=O)[O-])cc3[N+](=O)[O-])CS[C@H]12. Nature of the series: purified protein, by the assay type. Conditions: other: substrate hydrolysis, 25°C, 0.1 M phosphate buffer pH 7.0, 50 mM NaHCO3, error = 95% CI.
For another series, the target named is T2, OXA-48 (Klebsiella pneumoniae, UniProt Q6XEC0).
T2 construct: made in house
T2 sequence (Q6XEC0 23-265 limits assumed): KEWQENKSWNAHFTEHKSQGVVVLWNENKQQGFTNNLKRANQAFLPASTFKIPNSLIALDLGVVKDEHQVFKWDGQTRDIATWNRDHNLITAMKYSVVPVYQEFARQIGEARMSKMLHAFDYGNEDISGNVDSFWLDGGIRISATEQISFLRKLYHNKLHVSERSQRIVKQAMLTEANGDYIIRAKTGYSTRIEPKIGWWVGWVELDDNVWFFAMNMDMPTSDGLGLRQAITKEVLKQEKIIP
Nature of the series: biochemical. Conditions: nitrocefin reporter substrate; enzyme and inhibitor incubated 5 min; error = 95% CI.

The series “crystal structure” concerns the molecule itself. Nature of the series: crystal structure.
Setting [17] is: substrate hydrolysis, 25°C, pH 7.0, error = 95% CI.

≈ marks a conversion by molar mass, not a printed value. Where two headings read alike, the source gives them in different places.

The results in this text go back to publication PMC6437269, “OXA-48-Mediated Ceftazidime-Avibactam Resistance Is Associated with Evolutionary Trade-Offs” (mSphere, 2019).

A word on the Km: it is the substrate concentration at which the rate is half of its maximum. A word on the kcat: it is the number of substrate molecules converted per active site and unit of time at saturation. A word on the kcat/Km: it is the second-order rate constant that governs catalysis at low substrate concentration. In general, IC50 refers to the concentration that gives 50% inhibition. A low value points to higher potency.

For `CC(C)(O/N=C(\C(=O)N[C@@H]1C(=O)N2C(C(=O)[O-])=C(C[n+]3ccccc3)CS[C@H]12)c1csc(N)n1)C(=O)O` [CAZ, ceftazidime], the MIC in series [1] (Escherichia coli, Table 3, MP105, OXA-48:P68A in pCR-blunt II TOPO) came out at 16 µg/mL (≈ 29.3 µM); in the series on E. coli TOP10, 1 µg/mL (≈ 1.83 µM); in the series on E. coli MG1655 (MP100) (Escherichia coli, MG1655, Table 2, strain MP100, duplicates, read-out: MIC), 0.25 µg/mL (≈ 0.457 µM); against E. coli MG1655 (MP100) (Table 6, MP100) it was 0.25 µg/mL (≈ 0.457 µM); in [3] it was 16 µg/mL (≈ 29.3 µM); in series [4] it was 0.5 µg/mL (≈ 0.915 µM). Further, the MIC in series [5] (Escherichia coli, Table 2, strain MP101, duplicates, read-out: MIC) came out at 0.25 µg/mL (≈ 0.457 µM); in series [5] (Table 6, MP101, native plasmid) it was 0.25 µg/mL (≈ 0.457 µM); in series [6] (Escherichia coli, Table 2, strain MP102, after two-step CAZ selection) it was 32 µg/mL; in series [7], 32 µg/mL (≈ 58.5 µM); in series [8] (Escherichia coli, Table 2, strain MP103, after two-step CAZ-AVI selection) it was 32 µg/mL. Moreover, the “MIC increase by P68A substitution” value in series [1] (MP105 versus native OXA-48 (MP104)) worked out at 32 fold. Further, the “increased catalytic efficiency (kcat/Km)” value on OXA-48:P68A [2] (P68A compared to native OXA-48) is on record as above 10 fold. For the same molecule, the Km at OXA-48:P68A [2] (setting [17]) is 220 ± 50 µM. Also, the kcat at OXA-48:P68A [2] (setting [17]) was 26 ± 3 s⁻¹. In addition, in series [6] (MP102 versus MP101), the “MIC increase after CAZ selection” value was determined as 128 fold. Further, the “MIC increase after CAZ-AVI selection” value in series [8] (MP103 versus MP101) stood at 128 fold.

For the molecule `NC(=O)[C@@H]1CC[C@@H]2CN1C(=O)N2OS(=O)(=O)O` [Avibactam, avibactam], the “change in the inhibitory activity” value on OXA-48:P68A [9] (P68A compared to native OXA-48) is reported as “no change”.

Regarding OXA-48 (Klebsiella pneumoniae), the Michaelis-Menten constant (Km) in series [10] is given as 898 ± 155 µM; in series [11], 4 ± 1 µM; in series [12], 13 ± 2 µM; in series [13], 300 ± 150 µM; in series [14] it was 370 ± 70 µM; in [15], 1,678 ± 686 µM. Besides, in [16], the Km came out at 226 ± 34 µM. The kcat came to 3.9 ± 0.5 s⁻¹ in [10]; 0.71 ± 0.02 s⁻¹ in series [11]; 4.8 ± 0.2 s⁻¹ in series [12]; 3 ± 0.8 s⁻¹ in series [13]; 608 ± 53 s⁻¹ in [14]; 1.7 ± 0.6 s⁻¹ in [15]. The kcat in [16] was determined as 141 ± 12 s⁻¹. In addition, the kcat/Km is 4000 ± 1000 M⁻¹ s⁻¹ in series [10]; 177000 ± 50000 M⁻¹ s⁻¹ in series [11]; 365000 ± 71000 M⁻¹ s⁻¹ in series [12]; 10000 ± 8000 M⁻¹ s⁻¹ in [13]; 1.64e+06 ± 455000 M⁻¹ s⁻¹ in [14]; 1000 ± 800 M⁻¹ s⁻¹ in series [15]. Further, the kcat/Km in [16] came to 624000 ± 148000 M⁻¹ s⁻¹.

As to `C[C@]1(Cn2ccnn2)[C@H](C(=O)O)N2C(=O)C[C@H]2S1(=O)=O` [Tazobactam, tazobactam], the “reduction in the IC50” value on OXA-48:P68A [9] (P68A compared to native OXA-48, 5 min) is above 20 fold. In addition, the IC50 stood at 4 ± 1 µM against OXA-48:P68A [9] (nitrocefin reporter substrate, enzyme and inhibitor incubated 5 min, error = 95% CI); 95 ± 9 µM on OXA-48.

B1: OXA-48:P68A (enzyme)
chain: KEWQENKSWNAHFTEHKSQGVVVLWNENKQQGFTNNLKRANQAFLAASTFKIPNSLIALDLGVVKDEHQVFKWDGQTRDIATWNRDHNLITAMKYSVVPVYQEFARQIGEARMSKMLHAFDYGNEDISGNVDSFWLDGGIRISATEQISFLRKLYHNKLHVSERSQRIVKQAMLTEANGDYIIRAKTGYSTRIEPKIGWWVGWVELDDNVWFFAMNMDMPTSDGLGLRQAITKEVLKQEKIIP
notes: also called OXA-48:P68A-CAZ; OXA-48:P68A-AVI; source: E. coli Rosetta 2(DE3)/pLysS, purified (>95% purity)
As to B1, in the series “crystal structure”, the binding result was “binds”.
